Data on four molecules can be found in article PMC8809517, “Cofactor-independent RNA editing by a synthetic S-type PPR protein”.

Holding throughout (assay): high-throughput RNA pulldown from lysate on Ni-NTA beads; HRP: 50 mM Tris pH 8, 150 mM NaCl, 1 mM beta-mercaptoethanol, 50 ug/ml BSA, 3 ug/ml yeast RNA, 0.5% heparin; ITC and FP: Tris pH 8, 200 mM KCl, 5% glycerol; MST: 50 mM Tris pH 8, 200 mM NaCl, 1 mM DTT, BSA, heparin, 0.05% Tween 20
Common to all, as to conditions: tags: N-terminal His-eGFP

Series [1] addresses T1, GFP-9S library array, motif 4 ND N98D;D124R (synthetic construct, N98D;D124R).
T1 chain: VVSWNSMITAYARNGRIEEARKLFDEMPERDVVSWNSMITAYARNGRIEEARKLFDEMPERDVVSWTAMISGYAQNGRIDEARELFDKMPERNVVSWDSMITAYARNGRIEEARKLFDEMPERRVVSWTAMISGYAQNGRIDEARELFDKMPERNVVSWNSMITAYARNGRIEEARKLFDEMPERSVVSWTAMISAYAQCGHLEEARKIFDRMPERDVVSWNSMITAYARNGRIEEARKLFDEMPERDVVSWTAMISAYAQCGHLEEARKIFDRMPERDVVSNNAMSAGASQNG

The target of series [2] is T2, GFP-9S library array, motif 4 ND N98I;D124K (synthetic construct, N98I;D124K).
T2 chain: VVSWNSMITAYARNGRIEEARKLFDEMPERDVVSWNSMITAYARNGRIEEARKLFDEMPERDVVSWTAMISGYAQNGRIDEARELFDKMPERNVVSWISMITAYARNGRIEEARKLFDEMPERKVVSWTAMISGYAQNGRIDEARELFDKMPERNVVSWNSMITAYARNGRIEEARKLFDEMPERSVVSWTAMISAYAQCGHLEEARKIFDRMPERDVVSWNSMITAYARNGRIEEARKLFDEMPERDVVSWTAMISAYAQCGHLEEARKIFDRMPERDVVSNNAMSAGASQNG

Series [3] deals with T3, GFP-9S library array, motif 4 ND N98V;D124M (synthetic construct, N98V;D124M).
T3 chain: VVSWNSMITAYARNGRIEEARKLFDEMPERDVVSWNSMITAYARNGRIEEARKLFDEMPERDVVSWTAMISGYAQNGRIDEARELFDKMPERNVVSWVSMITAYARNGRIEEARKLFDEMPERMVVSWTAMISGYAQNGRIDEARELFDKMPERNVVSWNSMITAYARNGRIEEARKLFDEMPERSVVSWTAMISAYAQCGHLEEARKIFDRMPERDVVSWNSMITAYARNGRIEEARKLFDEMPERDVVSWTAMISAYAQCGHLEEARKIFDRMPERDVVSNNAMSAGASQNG

In series [4] the target is T4, GFP-9S library array, motif 4 ND N98F;D124L (synthetic construct, N98F;D124L).
T4 chain: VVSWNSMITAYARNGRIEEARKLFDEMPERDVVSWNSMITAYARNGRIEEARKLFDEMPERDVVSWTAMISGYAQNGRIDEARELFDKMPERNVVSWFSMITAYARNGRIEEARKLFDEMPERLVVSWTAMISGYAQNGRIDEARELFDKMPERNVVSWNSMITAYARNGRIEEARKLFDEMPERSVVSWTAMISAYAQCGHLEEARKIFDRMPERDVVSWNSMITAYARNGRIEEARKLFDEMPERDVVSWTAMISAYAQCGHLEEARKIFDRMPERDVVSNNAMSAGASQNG

In series [5] the target is T5, GFP-9S library array, motif 4 ND N98D;D124E (synthetic construct, N98D;D124E).
T5 chain: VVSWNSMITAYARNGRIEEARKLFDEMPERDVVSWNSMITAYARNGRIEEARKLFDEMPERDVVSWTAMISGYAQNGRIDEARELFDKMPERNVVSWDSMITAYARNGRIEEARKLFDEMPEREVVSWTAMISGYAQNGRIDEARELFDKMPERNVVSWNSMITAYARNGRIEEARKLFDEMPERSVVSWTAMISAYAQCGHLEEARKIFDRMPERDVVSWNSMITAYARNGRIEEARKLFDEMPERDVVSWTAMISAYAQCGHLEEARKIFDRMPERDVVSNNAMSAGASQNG

One may read the Kd as the concentration at which binding is half-saturated. Higher therefore signals a looser complex. With AUUACACGUGA (ssRNA) [Cy5-rpoA], the Kd turned out to be 154 nM in series [1] (label: 5' Cy5); 131 nM in series [2] (label: 5' Cy5); 148 nM in series [3] (label: 5' Cy5); 76.3 nM in series [4] (label: 5' Cy5); 124 nM in series [5] (label: 5' Cy5).

AUUAUACGUGA (ssRNA) [IR-rpoA-U]: the Kd in series [1] (label: 5' IRDye 800CW) worked out at 282 nM; in series [2] (label: 5' IRDye 800CW), 183 nM; in series [3] (label: 5' IRDye 800CW), 294 nM; in series [4] (label: 5' IRDye 800CW), 166 nM; in series [5] (label: 5' IRDye 800CW), 283 nM.

Take AUUAAACGUGA (ssRNA) [IR-rpoA-A]: the Kd in series [1] (label: 5' IRDye 800CW) is 326 nM; in series [2] (label: 5' IRDye 800CW), 197 nM; in series [3] (label: 5' IRDye 800CW), 431 nM; in series [4] (label: 5' IRDye 800CW), 232 nM; in series [5] (label: 5' IRDye 800CW) it was 343 nM.

In the case of AUUAGACGUGA (ssRNA) [Cy5-rpoA-G], the dissociation constant Kd was 155 nM in series [1] (label: 5' Cy5); 121 nM in series [2] (label: 5' Cy5); 155 nM in series [3] (label: 5' Cy5); 90.2 nM in series [4] (label: 5' Cy5); 95.2 nM in series [5] (label: 5' Cy5).
